# Laboratory results reported in the supplement of paper PMC9170038.
# Test system: MS2 coat protein
# Test: apparent KD of MS2 coat protein; designed switch direction (-1 OFF switch, 1 ON switch): 1; higher = weaker reporter binding
# Procedure, shortened: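 Normalised cluster fluorescence was curve-fitted, and each design's median over clusters is its apparent KD. Before this, SNAP-549-labelled MS2 coat protein was titrated from 0.7 or 1.5 nM, doubling to 3 µM, over RNA switches transcribed on Illumina chips by stalled E. coli RNA polymerase. Titrations had no input, 200 uM small-molecule ligand, or an oligonucleotide input, and steps lasted 0.8–1.5 h (lowest) to 10–20 min (highest).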
# [1] = Eterna round: R95, input ligand: microRNA oligo, concentration not stated
# [2] = Eterna round: R95, input ligand: FMN 200 uM
# [3] = Eterna round: R95, input ligand: none
# [4] = input ligand: microRNA oligo, concentration not stated
Sequence,apparent KD of MS2 coat protein [1] [µM],apparent KD of MS2 coat protein [2] [µM],apparent KD of MS2 coat protein [3] [µM],apparent KD of MS2 coat protein (input ligand: FMN 200 uM) [µM],apparent KD of MS2 coat protein [4] [µM],apparent KD of MS2 coat protein (input ligand: none) [µM]
GAUUAACAUGAGGAUCACCCAUGUCGUUUUAUGGGAGGAUAUACGUGGACCGUAGUCCGCGUAGAAGGCCUAAUUG [JL-ss1-3.23 janelle mod] (puzzle: Same State 1),0.0973,–,–,–,–,–
UCAAGCGAGAGGCUCGUCUUAUGCAAGGAACAUGAGGAUCACCCAUGUGAGGGACGAUUGAGUUAGAUGGAAUGGAG [JR_SHM208A_Sub032] (puzzle: Sensor for hsa-mir-208a),0.136,0.0299,0.0335,–,–,–
"AUAAGAAACACAGGAUAUACCGCACUUAACACGGUAGAAGGGUGGGACAUGAGGAUCACCCAUGUGGUCCGGGCGCCGGACCGC [Geenusrior] (Eterna round: R96, puzzle: Same State NG 1)",–,–,–,0.711,0.0278,0.329
"UUUAUAUUCAGAGGAUAUUGAUGUUGUAUUUUACAAGAAGGCUGUUUGUUUUGUAAUGUUAUUAUACAUGAGGAUCACCCAUGU [JR_SSNG1_Sub015] (Eterna round: R96, puzzle: Same State NG 1)",–,–,–,–,0.0168,–
"UUAAUGAUGUAAGGAUAUACAUGAGGAUUUCUCGUAGAAGGUACAGGACAUGAGGAUCACCCAUGUGUCGCUCCGUAGAGCGUA [JL SSNG1 1.08] (Eterna round: R96, puzzle: Same State NG 1)",–,–,–,0.349,0.414,0.525
AGAAAACAUGAGGAUCACCCAUGUAUAGUGAAUACAGGAUAUCACCGGCUGAAAAGCCGGUGAGAAGGGUGAUCGC [Atorenri] (puzzle: Same State 1),0.0186,0.149,0.0077,–,–,–
"GUAGCAUACCGAGGAUAUUCAUAUACAUGAGGAUCACCCAUGUUUAUAGGCCGAUUACGGCCUUGGGAGAAGGCGGAAUGCUAC [Xeonanis - 20 Mod25] (Eterna round: R96, puzzle: Same State NG 2)",–,–,–,0.0117,0.00952,0.0176
"CCGUAAAUGGAAGGAUAUGGAGCCUUAUUGGCUCCAGAAGGUUCAAUAACAUGAGGAUCACCCAUGUCGGCGGUCAAUAGACCG [Eli NG1ss - 79] (Eterna round: R96, puzzle: Same State NG 1)",–,–,–,0.0153,0.0337,0.0417
"AAUAUUAAUGCAGGAUAUGAUUAACAUGAGGAUCACCCAUGUGGUGUUGUGAGUAAGGAGAGUGAUCAGAAGGGCAUUUUUUUU [JMF's solution 36] (Eterna round: R96, puzzle: Same State NG 2)",–,–,–,0.648,0.349,0.529
"GUUACAUGAGGAUCACCCAUGUAUGUGUGGGAGUAAGUGUCUUAGGAUAUCUAGUAUUUAAAUUAAGAGAAGGAAGAUUGUUGU [JMF's solution 9] (Eterna round: R96, puzzle: Same State NG 3)",–,–,–,0.117,0.0848,0.113
"UAUGAAUAGCAAGGAUAUUGAUAACAUGAGGAUCACCCAUGUAAUUGAUCGAGUUAGAUCAGUUACAAGAAGGUGCAAUUGAUU [JR_SSNG2_Sub035] (Eterna round: R96, puzzle: Same State NG 2)",–,–,–,–,0.0194,–
"GGAAACAAGAGAGGAUAUGCAGAGGAUCACCCUGCAGAAGGCUCAAAAGAGAGGAUAUGCAGAGGAUCACCCUGCAGAAGGCUC [pwkr ssNG DX.27] (Eterna round: R96, puzzle: Same State NG 1)",–,–,–,0.0178,0.0112,0.0214
"CGUGAACAUGAGGAUCACCCAUGUGAAAAACAUAGAGGAUAUGUCACGUGAGUGUAAAAGACAGAAGGCUAUCGUG [Mod 3 of Round 1 starryjess' Mod pf Nando] (Eterna round: R96, puzzle: Same State 1)",–,–,–,0.0381,0.0783,0.0776
GAAUAACAUGAGGAUCACCCAUGUAAUAUAAUGGGAGGAUAUCUGAAUUAAUUAUAUUAAGGAGAAGGCCUAUAUG [Mat - Same State 1 - Mod of Eli - D54] (puzzle: Same State 1),0.204,0.0516,0.26,–,–,–
GGAGCCGGCACUGAGGAUAUUCAUAGUGUAACAUGAGGAUCACCCAUGUAGGCCCUGAGGCCUUGGGAGAAGGCAGGUCGGCUCG [JL-ss2-3.04 ViennaUCT mod] (puzzle: Same State 2),0.239,0.0318,0.445,–,–,–
"GUUACAUGAGGAUCACCCAUGUAUGUGUGGGAGUAAGUGUCUUAGGAUAUCUAUUAUUUGAAUUAAGAGAAGGAAGAUUGUUGU [JMF's solution 21] (Eterna round: R96, puzzle: Same State NG 3)",–,–,–,0.128,0.0698,0.103

Sequence,apparent KD of MS2 coat protein [1] [µM],apparent KD of MS2 coat protein [2] [µM],apparent KD of MS2 coat protein [3] [µM],apparent KD of MS2 coat protein (input ligand: FMN 200 uM) [µM],apparent KD of MS2 coat protein [4] [µM],apparent KD of MS2 coat protein (input ligand: none) [µM]
"UGGCUCAGAGCAGGAUAUAUGUAAUAACAUGAGGAUCACCCAUGUGUCGAGCUUCGGCUCGACACAUAGAAGGGCUCUGAGCCU [SSNG2/2-B3] (Eterna round: R96, puzzle: Same State NG 2)",–,–,–,0.012,0.0288,0.0403
GGAGCCGGUACUGAGGAUAUUCAUCUUAAAACAUGAGGAUCACCCAUGUAGGCCAGAAGGCCUUGGGAGAAGGCAGAUCGGCUCC [Biseusra - 7] (puzzle: Same State 2),0.0522,0.02,0.066,–,–,–
"GUGGUCAGACAUGAGGAUCACCCAUGUGGAAUAAAUAACAACUAGGAUAUAUAAUAUAGGAUAUAAUAGAAGGAGUGAUUGGUG (Eterna round: R96, puzzle: Same State NG 3)",–,–,–,–,0.121,–
AAAGCACAUGAGGAUCACCCAUGUGGAAAUAACACAGGAUAUCUGGCCUAAGCUUAGGCGAGAGAAGGGUGACCUA [Beintivequ] (puzzle: Same State 1),0.0655,–,–,–,–,–
"CGCGGUAAGGAAGGAUAUGGGACGAAAACGUACCUAGAAGGUCCACAUGAGGAUCACCCAUGUACCAAGAAAGCCGCGAAAUUA [Cereraus] (Eterna round: R96, puzzle: Same State NG 1)",–,–,–,0.0907,0.276,0.41
ACACCACAUGAGGAUCACCCAUGUGUCAAUAACACAGGAUAUCACCCGGAAUACACCGGGUGAGAAGGGUGACCGA [Gesois] (puzzle: Same State 1),0.0301,0.158,0.0254,–,–,–
"UGGUACAUGGGAGGAUAUCAUGUAGAAACAUGAGGAUCACCCAUGUAGAUGGCAGCUUUGCUGAAUGAGAAGGCCCAUGUACCU [JL SSNG1 3.58] (Eterna round: R96, puzzle: Same State NG 2)",–,–,–,0.0156,0.0189,0.0228
AUUAGUUGCGGGCAGGAUAUGUAUUAAAAUACAUGAGGAUCACCCAUGUGCGGGUAUAACACCCGACAGAAGGGCCAAUCGCGAC [Mat - Same State 2 - Mod of UCT - D93] (puzzle: Same State 2),0.25,0.0254,0.409,–,–,–
GCCCAUAGUAUAUGGAUACAAGCUUUUUGACAUGAGGAUCACCCAUGUACUCGUCUUAUGUGCAGUCCGUAGACUGC [JL-shm-2.20 Brourd mod] (puzzle: Sensor for hsa-mir-208a),0.0158,0.0268,–,–,–,–
"AGAGCCGGCACCGAGGAUAUUCAUAUUAAAACAUGAGGAUCACCCAUGUAGGCCAGAAGGCCUUGGGAGAAGGCGGAUCGGCUCG [Xeonanis - 7] (Eterna round: R96, puzzle: Same State 2)",–,–,–,0.0325,0.335,0.559
AGAAGGAGAGCGCAGGAUAUCGAUAAUGACACAUGAGGAUCACCCAUGUUUGGUAUUAGAAGGAACGAGAAGGGUGAAAGGAGAA [knee_arm_01] (puzzle: Same State 2),0.0598,0.0592,0.116,–,–,–
UUUAGGAACGGGCAGGAUAUGUAUUAAAAUACAUGAGGAUCACCCAUGUGCGGGUAUAACACCCGACAGAAGGGCCAAUCGUUCC [Laonerce - 9] (puzzle: Same State 2),0.17,0.0227,0.231,–,–,–
CGUCCGGCCUGAGCUGGACGGUAGCAUGUACAUGAGGAUCACCCAUGUUCAUGUGCAGGCUUUUUGCUCGUCUUGUG [salish99_mir208a_modof_jandersonlee_003] (puzzle: Sensor for hsa-mir-208a),0.0106,0.0423,0.0449,–,–,–
AUAAAACAUGAGGAUCACCCAUGUCAACAAAAUCGAGGAUAUGGACAGACUUCGGUCUGUCCAGAAGGCGAAUAAU [salish99_ss1_r3_100] (puzzle: Same State 1),0.0138,–,–,–,–,–
AGUCCAGCAUAAGCUGGACAAAAGCAUGUACAUGAGGAUCACCCAUGUUCAUGUACAAGCUUUUUGCUCGUCAAAAG [Mat - hsa-mir-208a - Mod of JL - 71] (puzzle: Sensor for hsa-mir-208a),0.0226,0.215,0.297,–,–,–
GGUCCAGCCUGAGCUGGACAAAAGCAUGUACAUGAGGAUCACCCAUGUUCAUGUACAAGCUUUUUGCUCGUCUUACU [salish99_208a_r3_085] (puzzle: Sensor for hsa-mir-208a),0.015,0.681,0.553,–,–,–
